Laboratory results: US20060003399

Legend:
[1] = system: Full length human N-WASP, TAP-tagged at the C-terminus (Myc-N-WASP-TAP)
[2] = system: Full length human WASP, TAP-tagged at the C-terminus (Myc-WASP-TAP)

**Q.** Which “actin polymerization at higher activator concentrations” value [1] does the source give for GST-tev-Rac1 here?
**A.** At higher concentrations, Nck1, Nck2 and Rac1 inhibited WASP- and N-WASP-stimulated actin polymerization

**Q.** And the “actin polymerization at higher activator concentrations” value [2]?
**A.** At higher concentrations, Nck1, Nck2 and Rac1 inhibited WASP- and N-WASP-stimulated actin polymerization
